Our source for the IC50 of neutralisation of SARS-CoV-2 pseudovirus (293T (ACE2) cells) values is article PMC7263513.

The target of experiment [1] is SARS-CoV-2 receptor binding domain (RBD) (Severe acute respiratory syndrome coronavirus 2 (2019-nCoV) (SARS-CoV-2).) (UniProt P0DTC2).
Experiment [2] concerns the target SARS-CoV-2 receptor binding domain (RBD) (SARS-CoV-2) (UniProt P0DTC2).

Regarding C002 (antibody), in experiment [1], the IC50 of neutralisation of SARS-CoV-2 pseudovirus (293T (ACE2) cells) was determined as 0.00888 µg/mL.

Regarding C104 (antibody), the IC50 of neutralisation of SARS-CoV-2 pseudovirus (293T (ACE2) cells) in experiment [1] was 0.0233 µg/mL.

Regarding C105 (antibody), the IC50 of neutralisation of SARS-CoV-2 pseudovirus (293T (ACE2) cells) in experiment [1] was 0.0261 µg/mL.

Turning to C110 (antibody), in experiment [1], the IC50 of neutralisation of SARS-CoV-2 pseudovirus (293T (ACE2) cells) came out at 0.0184 µg/mL.

C144 (antibody) came in with an IC50 of neutralisation of SARS-CoV-2 pseudovirus (293T (ACE2) cells) in experiment [2] of 0.00691 µg/mL.
